# B1: MGC27345 (parent)
# chain: KYMPHLCQDSSGEVSCQCQLHPPR
# B2: JUNB (parent)
# chain: FVKALDDLHKMNHVTPPNVSLGAT
# Variants of: B1
# Experiment: protein stability index of a GFP-peptide fusion (GPS, HEK-293T) (PSI 1-6); higher = more stable
# Details: c terminus: a fixed tail appended
# 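Also: lentivirally expressed fusions sorted by FACS into six bins by GFP to DsRed ratio, PSI derived from sequencing read proportions per bin multiplied by bin number.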
row,Variant,protein stability index
1,KYMPHLCQDSSGEVSCQCQLHPPY,3.87
2,KYMPHLCQDSSGEVSCQCQLHPPH,4.04
3,KYMPHLCQDSSGEVSCQCQLHPPF,3.39
4,KYMPHLCQDSSGEVSCQCQLHPPV,3.23
5,KYMPHLCQDSSGEVSCQCQLHPPW,2.89
6,KYMPHLCQDSSGEVSCQCQLHPPL,3.85
7,KYMPHLCQDSSGEVSCQCQLHPPI,3.75
8,KYMPHLCQDSSGEVSCQCQLHPPD,4.59
9,KYMPHLCQDSSGEVSCQCQLHPPE,4.59
10,KYMPHLCQDSSGEVSCQCQLHPPK,3.26
11,KYMPHLCQDSSGEVSCQCQLHPPS,4.29
12,KYMPHLCQDSSGEVSCQCQLHPPT,3.99
13,KYMPHLCQDSSGEVSCQCQLHPPN,4.28
14,KYMPHLCQDSSGEVSCQCQLHPPG,4.32
15,KYMPHLCQDSSGEVSCQCQLHPPM,3.31
16,KYMPHLCQDSSGEVSCQCQLHPPQ,4.05

# Variants of: B2
# Experiment: as above
# Details: c terminus: a fixed tail appended
row,Variant,protein stability index
1,FVKALDYLHKMNHVTPPNVSLGAT,2.2
2,FVKALDRLHKMNHVTPPNVSLGAT,1.93
3,FVKALDQLHKMNHVTPPNVSLGAT,1.7
4,FVKALDPLHKMNHVTPPNVSLGAT,3.02
5,FVKALDMLHKMNHVTPPNVSLGAT,2.62
6,FVKALDNLHKMNHVTPPNVSLGAT,1.96
7,FVKALDALHKMNHVTPPNVSLGAT,1.69
8,FVKALDGLHKMNHVTPPNVSLGAT,1.98
9,FVKALDTLHKMNHVTPPNVSLGAT,2.16
10,FVKALDILHKMNHVTPPNVSLGAT,2.48
11,FVKALDWLHKMNHVTPPNVSLGAT,2.24
12,FVKALDFLHKMNHVTPPNVSLGAT,2.71
13,FVGALDDLHKMNHVTPPNVSLGAT,2.12
14,FVSALDDLHKMNHVTPPNVSLGAT,2.72
15,FVAALDDLHKMNHVTPPNVSLGAT,1.69
16,FVDALDDLHKMNHVTPPNVSLGAT,2.23
17,FVHALDDLHKMNHVTPPNVSLGAT,2.23
18,FVCALDDLHKMNHVTPPNVSLGAT,3.29
19,FVKALDDLHKMNHVTPPNVSVGAT,1.65
20,FVKALDDLHKMNHVTPPNVSGGAT,2.54
21,FVKALDDLHKMNHVTPPNVSWGAT,1.95
22,FVKALDDLHKMNHVTPPNVSRGAT,2.15
23,FVKALDDLHKMNVVTPPNVSLGAT,1.75
24,FVKALDDLHKMNFVTPPNVSLGAT,2.17
25,FVKALDDLHKMNDVTPPNVSLGAT,1.92

row,Variant,protein stability index
1,FVKALDDLHKMNIVTPPNVSLGAT,2.22
2,FVKALDDLHKMNNVTPPNVSLGAT,1.54
3,FVKALDDLHKMNHVTPPNVQLGAT,1.7
4,FVKALDDLHKMNHVTPPNVELGAT,2.16
5,FVKALDDLHKMNHVTPPNVILGAT,1.11
6,FVKALDDLHKMNHVTPPNVRLGAT,2.33
7,FVKALDDLHKMNHVTPPNVALGAT,3.1
8,FVKALDDLHKMNHVTPPNVWLGAT,3.23
9,FVKALDDLHKMNHVTPPNVMLGAT,1.64
10,FVKALDDLHKMNHVTPPNVCLGAT,1.83
11,FVKALDDLHKGNHVTPPNVSLGAT,1.61
12,FVKALDDLHKLNHVTPPNVSLGAT,1.7
13,FVKALDDLHKQNHVTPPNVSLGAT,2.63
14,FVKALDDLHKHNHVTPPNVSLGAT,1.94
15,FVKALDDLHKFNHVTPPNVSLGAT,2.6
16,FVKALDDLHKMNHVTPHNVSLGAT,1.89
17,FVKALDDLHKMNHVTPLNVSLGAT,1.37
18,FVKALDDLHKMNHVTPGNVSLGAT,1.56
19,FVKALDDLHKMNHVTPINVSLGAT,1.81
20,FVKALDDLHKMNHVTPYNVSLGAT,3.73
21,FVKALDDLHKMNHVTPQNVSLGAT,2.21
22,FVKALDDLHKMNHVTPPNVSLGMT,1.85
23,FVKALDDLHKMNHVTPPNVSLGST,2.05
24,FVKALDDLHKMNHVTPPNVSLGLT,2.73
25,FVKALDDLHKMNHVTPPNVSLGWT,1.72

row,Variant,protein stability index
1,FVKALDDLHKMNHVTRPNVSLGAT,1.6
2,FVKALDDLHKMNHVTEPNVSLGAT,2.55
3,FVKALDDLHKMNHVTAPNVSLGAT,1.94
4,FVKALDDLHKMNHVTSPNVSLGAT,1.78
5,FVKALDDLHKMNHVTVPNVSLGAT,1.86
6,FVKALDDLHKMNHVTKPNVSLGAT,1.79
7,FVKALDDLHKMNHVTFPNVSLGAT,2.55
8,FVKALDDLHKMNHVTWPNVSLGAT,1.92
9,FVKALDDLNKMNHVTPPNVSLGAT,1.72
10,FVKALDDLGKMNHVTPPNVSLGAT,1.97
11,FVKALDDLIKMNHVTPPNVSLGAT,1.29
12,FVKALDDLQKMNHVTPPNVSLGAT,1.34
13,FVKALDDLAKMNHVTPPNVSLGAT,1.86
14,FVKALDDLSKMNHVTPPNVSLGAT,2.57
15,FVKALDDLRKMNHVTPPNVSLGAT,1.66
16,FVKALDDEHKMNHVTPPNVSLGAT,2.31
17,FVKALDDIHKMNHVTPPNVSLGAT,2.64
18,FVKALDDSHKMNHVTPPNVSLGAT,2.39
19,FVKALDDKHKMNHVTPPNVSLGAT,2.3
20,FVKALDDQHKMNHVTPPNVSLGAT,1.68
21,FVKALDDCHKMNHVTPPNVSLGAT,1.77
22,FVKALDDMHKMNHVTPPNVSLGAT,1.62
23,FVKFLDDLHKMNHVTPPNVSLGAT,1.15
24,FVKLLDDLHKMNHVTPPNVSLGAT,2.69
25,FVKKLDDLHKMNHVTPPNVSLGAT,1.58

row,Variant,protein stability index
1,FVKGLDDLHKMNHVTPPNVSLGAT,2.68
2,FVKILDDLHKMNHVTPPNVSLGAT,2.12
3,FVKELDDLHKMNHVTPPNVSLGAT,2.13
4,FVKQLDDLHKMNHVTPPNVSLGAT,1.94
5,FVKRLDDLHKMNHVTPPNVSLGAT,1.61
6,FVKMLDDLHKMNHVTPPNVSLGAT,1.58
7,FVKVLDDLHKMNHVTPPNVSLGAT,1.77
8,FVKALDDLHKMNHVFPPNVSLGAT,1.69
9,FVKALDDLHKMNHVIPPNVSLGAT,1.59
10,FVKALDDLHKMNHVEPPNVSLGAT,1.45
11,FVKALDDLHKMNHVSPPNVSLGAT,1.92
12,FVKALDDLHKMNHVNPPNVSLGAT,1.84
13,FVKALDDLHKMNHVRPPNVSLGAT,2.24
14,FVKALDDLHKMNHVWPPNVSLGAT,1.51
15,FVKALDDLHQMNHVTPPNVSLGAT,1.95
16,FVKALDDLHHMNHVTPPNVSLGAT,2.13
17,FVKALDDLHDMNHVTPPNVSLGAT,2.22
18,FVKALDDLHYMNHVTPPNVSLGAT,2.63
19,FVKALDDLHSMNHVTPPNVSLGAT,2.11
20,FVKALDDLHCMNHVTPPNVSLGAT,1.64
21,FVKALDDLHWMNHVTPPNVSLGAT,4.58
22,FVKALDDLHFMNHVTPPNVSLGAT,1.6
23,AVKALDDLHKMNHVTPPNVSLGAT,4.1
24,MVKALDDLHKMNHVTPPNVSLGAT,3.6
25,YVKALDDLHKMNHVTPPNVSLGAT,1.54

row,Variant,protein stability index
1,FLKALDDLHKMNHVTPPNVSLGAT,2.79
2,FFKALDDLHKMNHVTPPNVSLGAT,2.03
3,FYKALDDLHKMNHVTPPNVSLGAT,2.51
4,FEKALDDLHKMNHVTPPNVSLGAT,3.98
5,FGKALDDLHKMNHVTPPNVSLGAT,3.5
6,FRKALDDLHKMNHVTPPNVSLGAT,3.54
7,FVKALVDLHKMNHVTPPNVSLGAT,2.59
8,FVKALRDLHKMNHVTPPNVSLGAT,1.59
9,FVKALYDLHKMNHVTPPNVSLGAT,4.17
10,FVKALADLHKMNHVTPPNVSLGAT,2
11,FVKALNDLHKMNHVTPPNVSLGAT,2.83
12,FVKALCDLHKMNHVTPPNVSLGAT,4.16
13,FVKALFDLHKMNHVTPPNVSLGAT,3.31
14,FVKALMDLHKMNHVTPPNVSLGAT,2.54
15,FVKALQDLHKMNHVTPPNVSLGAT,1.34
16,FVKALTDLHKMNHVTPPNVSLGAT,1.88
17,FVKALIDLHKMNHVTPPNVSLGAT,2.58
18,FVKALWDLHKMNHVTPPNVSLGAT,3.45
19,FVKALDDLHKMTHVTPPNVSLGAT,1.8
20,FVKALDDLHKMSHVTPPNVSLGAT,2.12
21,FVKALDDLHKMLHVTPPNVSLGAT,3.23
22,FVKALDDLHKMKHVTPPNVSLGAT,1.55
23,FVKALDDLHKMRHVTPPNVSLGAT,1.56
24,FVKALDDLHKMGHVTPPNVSLGAT,2.49
25,FVKAADDLHKMNHVTPPNVSLGAT,2.23

row,Variant,protein stability index
1,FVKAPDDLHKMNHVTPPNVSLGAT,2.2
2,FVKAGDDLHKMNHVTPPNVSLGAT,1.99
3,FVKAHDDLHKMNHVTPPNVSLGAT,1.9
4,FVKAMDDLHKMNHVTPPNVSLGAT,1.93
5,FVKAVDDLHKMNHVTPPNVSLGAT,1.86
6,FVKAKDDLHKMNHVTPPNVSLGAT,2.27
7,FVKASDDLHKMNHVTPPNVSLGAT,1.72
8,FVKALDDLHKMNHVTPPNVSLGAV,2.46
9,FVKALDDLHKMNHVTPPNVSLGAA,1.51
10,FVKALDDLHKMNHVTPPNVSLGAK,1.75
11,FVKALDDLHKMNHVTPPNVSLGAL,1.66
12,FVKALDDLHKMNHVTPPNVSLGAQ,1.83
13,FVKALDDLHKMNHVTPPNVSLGAH,1.83
14,FVKALDDLHKMNHQTPPNVSLGAT,2.26
15,FVKALDDLHKMNHLTPPNVSLGAT,1.88
16,FVKALDDLHKMNHHTPPNVSLGAT,1.78
17,FVKALDDLHKMNHTTPPNVSLGAT,1.82
18,FVKALDDLHKMNHFTPPNVSLGAT,1.8
19,FVKALDDLHKMNHRTPPNVSLGAT,1.84
20,FVKALDDLHKMNHITPPNVSLGAT,1.82
21,FVKALDDLHKMNHYTPPNVSLGAT,1.19
22,FVKALDDLHKMNHWTPPNVSLGAT,2.7
23,FVKALDDLHKMNHNTPPNVSLGAT,1.89
24,FVKALDDLHKMNHVTPPNVSLFAT,2.48
25,FVKALDDLHKMNHVTPPNVSLQAT,2.66

row,Variant,protein stability index
1,FVKALDDLHKMNHVTPPNVSLHAT,1.54
2,FVKALDDLHKMNHVTPPNVSLSAT,2.16
3,FVKALDDLHKMNHVTPPNVSLMAT,1.72
4,FVKALDDLHKMNHVTPPNVSLNAT,2.28
5,FVKALDDLHKMNHVTPPNVSLCAT,2.47
6,FVKALDDLHKMNHVTPPNVSLDAT,2.43
7,FVKALDDLHKMNHVTPPNWSLGAT,3.57
8,FVKALDDLHKMNHVTPPNLSLGAT,1.69
9,FVKALDDLHKMNHVTPPNASLGAT,1.77
10,FVKALDDLHKMNHVTPPNTSLGAT,1.56
11,FVKALDDLHKMNHVTPPNPSLGAT,1.44
12,FVKALDDLHKMNHVTPPNRSLGAT,1.9
13,FVKALDDLHKMNHVTPPNKSLGAT,1.39
14,FVKALDDLHKMNHVTPPNDSLGAT,1.94
15,FVKALDDLHKMNHVTPPNCSLGAT,2.11
16,FVKALDDLHKMNHVTPPQVSLGAT,2.49
17,FVKALDDLHKMNHVTPPKVSLGAT,1.75
18,FVKALDDLHKMNHVTPPGVSLGAT,1.73
19,FVKALDDLHKMNHVTPPEVSLGAT,1.62
20,FVKALDDLHKMNHVTPPLVSLGAT,1.93
21,FVKALDDLHKMNHVTPPRVSLGAT,3.67
22,FVKALDDLHKMNHVTPPAVSLGAT,1.32
